US20180155451A1 (published 2018)

T1: FcγRIIa H (human, UniProt P12318 34-217)
T1 construct: extracellular domain; also called FcγRIIa type H; 2aH
T1 sequence (looked up): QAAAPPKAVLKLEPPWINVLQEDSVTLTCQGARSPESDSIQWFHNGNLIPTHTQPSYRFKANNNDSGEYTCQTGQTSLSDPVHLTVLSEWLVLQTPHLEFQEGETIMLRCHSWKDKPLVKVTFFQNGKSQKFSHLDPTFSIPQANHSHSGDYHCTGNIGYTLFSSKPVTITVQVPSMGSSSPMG

T2: FcγRIIb (human, UniProt P31994 43-217)
T2 construct: extracellular domain; also called 2b
T2 sequence (looked up): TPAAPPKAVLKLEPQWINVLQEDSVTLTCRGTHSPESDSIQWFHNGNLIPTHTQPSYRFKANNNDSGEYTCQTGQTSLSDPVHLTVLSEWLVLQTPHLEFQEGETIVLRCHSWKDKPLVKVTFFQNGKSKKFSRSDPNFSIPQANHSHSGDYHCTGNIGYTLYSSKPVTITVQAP

T3: FcγRIIb (human, UniProt P31994 43-217)
T3 construct: extracellular domain; also called FcgRIIb; 2b
T3 sequence (looked up): T2 sequence (looked up)

B1: GpH7-A5/GpH7-B3 variant N325_09D/GpL16-k0 (antibody, human IgG1, kappa)
heavy 1: not shown
heavy 2: not shown
light: DIVMTQSPLSLPVTPGEPASISCQASESLVHSNRNTYLHWYLQKPGQSPQLLIYKVSNRFSGVPDRFSGSGSGTDFTLKISRVEAEDVGVYYCSQNTHVPPTFGQGTKVEIERTVAAPSVFIFPPSDEQLKSGTASVVCLLNNFYPREAKVQWKVDNALQSGNSQESVTEQDSKDSTYSLSSTLTLSKADYEKHKVYACEVTHQGLSSPVTKSFNRGEC
notes: heterodimerized IgG1, mutation in one H chain only; also called He Ab
B2: GpH7-A5/GpH7-B3 variant N325_13S/GpL16-k0 (antibody, human IgG1, kappa)
heavy 1: not shown
heavy 2: not shown
light: B1 light
notes: as for B1
B3: GpH7-A5/GpH7-B3 variant N325_06M/GpL16-k0 (antibody, human IgG1, kappa)
heavy 1: not shown
heavy 2: not shown
light: B1 light
notes: as for B1
B4: GpH7-A5/GpH7-B3 variant P331_16H/GpL16-k0 (antibody, human IgG1, kappa)
heavy 1: not shown
heavy 2: not shown
light: B1 light
notes: as for B1
B5: GpH7-A5/GpH7-B3 variant P331_15Y/GpL16-k0 (antibody, human IgG1, kappa)
heavy 1: not shown
heavy 2: not shown
light: B1 light
notes: as for B1
B6: GpH7-A5/GpH7-B3 variant N325_03V/GpL16-k0 (antibody, human IgG1, kappa)
heavy 1: not shown
heavy 2: not shown
light: B1 light
notes: as for B1
B7: GpH7-A5/GpH7-B3 variant P331_10E/GpL16-k0 (antibody, human IgG1, kappa)
heavy 1: not shown
heavy 2: not shown
light: B1 light
notes: as for B1
B8: GpH7-A5/GpH7-B3 variant N325_08L/GpL16-k0 (antibody, human IgG1, kappa)
heavy 1: not shown
heavy 2: not shown
light: B1 light
notes: as for B1
B9: GpH7-A5/GpH7-B3 variant N325_01G/GpL16-k0 (antibody, human IgG1, kappa)
heavy 1: not shown
heavy 2: not shown
light: B1 light
notes: as for B1
B10: GpH7-A5/GpH7-B3 variant P331_06M/GpL16-k0 (antibody, human IgG1, kappa)
heavy 1: not shown
heavy 2: not shown
light: B1 light
notes: as for B1
B11: GpH7-A5/GpH7-B3 variant P331_03V/GpL16-k0 (antibody, human IgG1, kappa)
heavy 1: not shown
heavy 2: not shown
light: B1 light
notes: as for B1
B12: GpH7-A5/GpH7-B3 variant N325_07I/GpL16-k0 (antibody, human IgG1, kappa)
heavy 1: not shown
heavy 2: not shown
light: B1 light
notes: as for B1
B13: GpH7-A5/GpH7-B3 variant N325_20W/GpL16-k0 (antibody, human IgG1, kappa)
heavy 1: not shown
heavy 2: not shown
light: B1 light
notes: as for B1
B14: GpH7-A5/GpH7-B3 variant N325_04F/GpL16-k0 (antibody, human IgG1, kappa)
heavy 1: not shown
heavy 2: not shown
light: B1 light
notes: as for B1
B15: GpH7-A5/GpH7-B3 variant P331_07I/GpL16-k0 (antibody, human IgG1, kappa)
heavy 1: not shown
heavy 2: not shown
light: B1 light
notes: as for B1
B16: GpH7-A5/GpH7-B3 variant P331_04F/GpL16-k0 (antibody, human IgG1, kappa)
heavy 1: not shown
heavy 2: not shown
light: B1 light
notes: as for B1
B17: GpH7-A5/GpH7-B3 variant P331_20W/GpL16-k0 (antibody, human IgG1, kappa)
heavy 1: not shown
heavy 2: not shown
light: B1 light
notes: as for B1
B18: GpH7-A5/GpH7-B3 variant (E269_01G)/GpL16-k0 (antibody, human IgG1, kappa)
heavy 1: not shown
heavy 2: not shown
light: B1 light
notes: IgG1 heterodimer, mutation in the GpH7-B3 chain only; also called He Ab
B19: GpH7-A5/GpH7-B3 variant (L235_12R)/GpL16-k0 (antibody, human IgG1, kappa)
heavy 1: not shown
heavy 2: not shown
light: B1 light
notes: as for B18
B20: GpH7-A5/GpH7-B3 variant (D265_10E)/GpL16-k0 (antibody, human IgG1, kappa)
heavy 1: not shown
heavy 2: not shown
light: B1 light
notes: as for B18

Target: T1, FcγRIIa H
Experiment: SPR (Biacore), relative binding vs GpH7-A5/GpH7-B3/GpL16-k0
Description: (§1) The heterodimerized antibodies He Abs in which one of the H chains was introduced with an alteration were assayed for their binding activities to each activating FcγR and inhibitory FcγR according to the method described in Example 4. […] The activating FcγRs in FIGS. 26, 27, 28, and 29 are FcγRIa, FcγRIIa (R), FcγRIIa (H), and FcγRIIIa, respectively.
(§2) Analysis of interaction between objective antibody and the FcγR was carried out using Biacore T100 (GE Healthcare). HBS-EP+ (GE Healthcare) was used as the running buffer, and the measurement temperature was set to 25° C. Chips produced by immobilizing the antigen peptide by the amine coupling method to a Series S Sencor Chip CM5 (GE Healthcare), or alternatively, chips produced by allowing preliminarily biotinylated antigen peptides to interact with and immobilize onto a Series S Sensor Chip SA (certified) (GE Healthcare) were used. Antibodies of interest were captured onto an antigen peptide-immobilized chip, and allowed to interact to each FcγR diluted with running buffer. To regenerate and repeatedly use the chip, the antibodies captured on the chip were washed off by reacting 10 mM glycine-HCl, pH 1.5.

Binder | He/Con_2aH
B1 | 53.1 % of control He Ab (=100)
B2 | 79.7 % of control He Ab (=100)
B3 | 48.2 % of control He Ab (=100)
B4 | 84.5 % of control He Ab (=100)
B5 | 86 % of control He Ab (=100)
B6 | 45.2 % of control He Ab (=100)
B7 | 87.1 % of control He Ab (=100)
B8 | 52 % of control He Ab (=100)
B9 | 56.8 % of control He Ab (=100)
B10 | 85.1 % of control He Ab (=100)
B11 | 82.5 % of control He Ab (=100)
B12 | 38.1 % of control He Ab (=100)
B13 | 47.2 % of control He Ab (=100)
B14 | 33.4 % of control He Ab (=100)
B15 | 77.4 % of control He Ab (=100)
B16 | 84.7 % of control He Ab (=100)
B17 | 82.8 % of control He Ab (=100)

Target: T2, FcγRIIb
Experiment: as above
Description: as §1, §2

Binder | He/Con_2b
B1 | 124 % of control He Ab (=100)
B2 | 177 % of control He Ab (=100)
B3 | 217 % of control He Ab (=100)
B4 | 116 % of control He Ab (=100)
B5 | 114 % of control He Ab (=100)
B6 | 111 % of control He Ab (=100)
B7 | 116 % of control He Ab (=100)
B8 | 197 % of control He Ab (=100)
B9 | 101 % of control He Ab (=100)
B10 | 102 % of control He Ab (=100)
B11 | 119 % of control He Ab (=100)
B12 | 171 % of control He Ab (=100)
B13 | 169 % of control He Ab (=100)
B14 | 143 % of control He Ab (=100)
B15 | 114 % of control He Ab (=100)
B16 | 110 % of control He Ab (=100)
B17 | 111 % of control He Ab (=100)

Target: T4, FcγRIa (human, UniProt P12314 16-292)
T4 construct: extracellular domain; also called FcgRI; 1a
T4 sequence (P12314 16-292): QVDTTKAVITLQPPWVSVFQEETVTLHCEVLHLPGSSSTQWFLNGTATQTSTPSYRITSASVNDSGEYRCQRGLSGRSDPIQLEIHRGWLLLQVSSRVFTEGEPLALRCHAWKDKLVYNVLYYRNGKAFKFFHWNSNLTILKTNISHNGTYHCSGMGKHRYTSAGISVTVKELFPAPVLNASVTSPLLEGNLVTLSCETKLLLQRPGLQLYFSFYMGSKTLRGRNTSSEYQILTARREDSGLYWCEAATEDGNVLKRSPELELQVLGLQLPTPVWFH
Experiment: SPR, captured antibody; relative to GpH7-A5/GpH7-B3/GpL16-k0

Binder | He/Con_1a
B18 | 104 relative, HeCon Ab = 100
B19 | 78 relative, HeCon Ab = 100
B20 | 101 relative, HeCon Ab = 100

Target: T3, FcγRIIb
Experiment: as above

Binder | He/Con_2b
B18 | 51.5 relative, HeCon Ab = 100
B20 | 38.2 relative, HeCon Ab = 100
